Consider 17 molecules from patent US20070265189A1.

Where two headings read alike, the source gives them in different places. No end group written: not given here.

A word on the Kd: it is the equilibrium constant for the complex coming apart.

Assay [1] concerns the target human insulin receptor (HIR) (human) (UniProt P06213). As to the kind of experiment: HIR Kd; method not restated (Example 3: 125I-insulin displacement, solubilised HIR).
The target of assay [2] is Soluble IGF-1R (R&D Systems, Cat. # 391-GR/CF), P08069.
In assay [3] the target is T1, Insulin receptor prepared according to Bass et al., 1996 (human), P06213.
Assay [4] has as its target Soluble IGF-1R (R&D Systems, Cat. # 391-GR/CF), P08069. As to the kind of experiment: phage ELISA: IGF-1R ratio over background divided by IR ratio over background. (An ELISA detects its analyte on a solid surface through an enzyme-linked reagent.)
For assay [5], the target named is T1, Insulin receptor prepared according to …. As to the kind of experiment: phage ELISA: IR ratio over background divided by IGF-1R ratio over background.
In assay [6] the target is human insulin receptor (HIR) (human) (UniProt P06213). Kind of assay: HIR Kd; method not restated (Example 3: 125I-insulin displacement, solubilised HIR). The source holds these as a separate data set.
The target in assay [7] is Soluble IGF-1R (sIGF-1R), R&D Systems Cat. # 391-GR/CF, P08069. Kind of assay: phage ELISA.
Assay [8] concerns the target soluble human insulin receptor-immunoglobulin heavy chain chimera (sIR-Fc; Bass et al., 1996) (human), P06213. As to the kind of experiment: phage ELISA.
In assay [9] the target is soluble human insulin receptor-immunoglobulin heavy chain chimera (sIR-Fc; Bass et al., 1996) (human) (UniProt P06213). Kind of assay: phage ELISA.
Assay [10] addresses human insulin receptor (HIR) purified from transfected cells after solubilization with Triton X-100 (human) (UniProt P06213). As to the kind of experiment: competition with 125I-insulin for solubilised HIR, PEG precipitation; Kd calculated.

B1: RB521 (peptide)
peptide: MADYKDDDDKGSLDESFYDWFERQLGKKGGSGGSGSLDESFYDWFERQLGKKAAAGAPVPYPDPLEPRPG
The molecule B1 yielded a Kd in assay [1] of 44 nM.

B2: Fusion 436 (MBP fusion of H2C-9aa-H2C) (protein, not shown: large carriers; small tags and cut ends)
chain: NNNNLGIEGRISEFIEGRAQPAMAFHENFYDWFVRQVSGGSGGSGGSFHENFYDWFVRQVSAAAGAPVPYPDPLEPRAA
B2 had a Kd in assay [1] of 410 nM.
Regarding DYKDVDTPAQVGWNRLWSVGPGEHWYTDDPFYHXLSELLRESGAAAAGAP (peptide, not shown: large carriers, X: residue not identified in the source; also: phage-displayed fusion) [B6L-3-G6-IR], the Ratio over Background, IGF-1R (ratio over background) in assay [2] came out at 2.5. For the same molecule, the Ratio over Background, IR (ratio over background) in [3] turned out to be 1.8. In addition, the Comparison IGF-1R/IR in assay [4] is 1.4. The Comparison IR/IGF-1R in [5] was 0.7.

B3: Fusion 463 (MBP fusion of H2C-3aa-H2C) (protein, not shown: large carriers; small tags and cut ends)
chain: NNNNLGIEGRISEFIEGRAQPAMAFHENFYDWFVRQVSGGSFHENFYDWFVRQVSAAAGAPVPYPDPLEPRAA
Turning to B3, the Kd in assay [1] was 960 nM.

B4: Fusion 437 (MBP fusion of H2C) (protein, not shown: large carriers; small tags and cut ends)
chain: NNNNLGIEGRISEFIEGRAQPAMAFHENFYDWFVRQVSAAAGAPVPYPDPLEPRAA
As to B4, the results for the equilibrium dissociation constant (Kd) in assay [1] and in [6] were 83 nM and 8300 nM, respectively.

B5: B6L-4-A7-IR (peptide, not shown: large carriers)
peptide: DYKDAGTPAQVGXNRLWSVWPGEHWNTVDPFYNKLSELLRESGAAAAGAP
modifications: not fully specified; X: residue not identified in the source; also: phage-displayed fusion
Regarding B5, the Ratio over Background, IGF-1R (ratio over background) in assay [2] is 3.4. Also, in assay [3], the Ratio over Background, IR (ratio over background) came to 1.9. Besides, the Comparison IGF-1R/IR in assay [4] was found to be 1.8. In addition, the Comparison IR/IGF-1R in assay [5] came out at 0.6.

B6: 20E2B-3-C11-IGFR (peptide)
peptide: CMMXDGFYAGLGCLLTAGEGR
modifications: not fully specified; printed as CMM.DGFYAGLGCLLTAGEGR; X: residue not identified in the source; cysteine pairing not given here
B6: in assay [7], the IGF-1R/IR comparison worked out at 7.5 and the Ratio over Background came out at 15.4. Besides, in assay [8], the IR/IGF-1R comparison was determined as 0.1 and the Ratio over Background was found to be 2.1.

B7: RB538 (peptide)
peptide: MADYKDDDDKGSLDESFYDWFERQLGKKGGSGGSGGSGGSWLDQEWAWVQCEVYGRGCPSAAAGAPVPYPDPLEPRPG
Turning to B7, the Kd in [1] stood at 0.017 nM.

B8: Fusion 464 (MBP fusion of LF-H2C) (protein, not shown: large carriers; small tags and cut ends)
chain: NNNNLGIEGRISEFIEGRDYKDDDDKFHENFYDWFVRQVSAAGAPVPYPDPLEPRAA
As to B8, the Kd in assay [6] was determined as 39 nM.

B9: RB517 (peptide)
peptide: DYKDDDDKHLCVLEELFWGASLFGYCSGGGSGGSHLCVLEELFWGASLFGYCSGAAAGAPVPYPDPLEPRAA
Consider B9, for which the Kd in assay [1] came out at 60 nM.
RGAVAGFHDQFYDWFDRQVSRVHKFG [H2CA-4-H9-IGFR]: in [9], the IR/IGF-1R comparison is 0.3 and the Ratio over Background is 1.9.
With GSLDESFYDWFERQLG [S386], the dissociation constant Kd in assay [10] was 320 nM.

B10: Fusion 435 (MBP fusion of H2C-3aa-H2C-3aa-H2C) (protein, not shown: large carriers; small tags and cut ends)
chain: NNNNLGIEGRISEFIEGRAQPAMAFHENFYDWFVRQVSGGSFHENFYDWFVRQVSGGSFHENFYDWFVRQVSAAAGAPVPYPDPLEPRAA
As for B10, the Kd in assay [1] came to 20 nM; in [6] it was 2000 nM.

B11: 20E2B-2-B11-IGFR (peptide)
peptide: VVTPVNFYRALEALVRGXRLG
modifications: not fully specified; printed as VVTPVNFYRALEALVRG.RLG; X: residue not identified in the source
Regarding B11, in assay [7], the IGF-1R/IR comparison came to 9.4 and the Ratio over Background came out at 10.6. For the same molecule, in assay [8], the IR/IGF-1R comparison was found to be 0.1 and the Ratio over Background was 1.1.

B12: B6Hα-2-C4-IR (peptide)
peptide: RCGRWXAEMGAGDDPFYHKLSELVCG
modifications: not fully specified; X: residue not identified in the source; cysteine pairing not given here
B12: in [7], the IGF-1R/IR comparison was determined as 11 and the Ratio over Background was found to be 9.9. For the same molecule, in assay [8], the IR/IGF-1R comparison amounted to 0.1 and the Ratio over Background was determined as 0.9.

B13: RB537 (peptide)
peptide: MADYKDDDDKGSLDESFYDWFERQLGKKGGSGGSWLDQEWAWVQCEVYGRGCPSAAAGAPVPYPDPLEPRPG
B13 showed a Kd in [1] of 0.059 nM.
As to YRGMLVLGRISGGAGKAASERPARIGQKVSAVNFYDWFV [A6L-0-H3-IR], in assay [9], the IR/IGF-1R comparison was determined as 0.1 and the Ratio over Background is 2.
